Experimental data reported in publication PMC12151379 (2025).
Values belong to the binder of their own block, whether it stands above or below them.

B1: liprin-α2_CC2N (residues 300–404) (domain or fragment)
chain: EVEQEAETARKDLIKTEEMNTKYQRDIREAMAQKEDMEERITTLEKRYLSAQRESTSIHDMNDKLENELANKEAILRQMEEKNRQLQERLELAEQKLQQTMRKAE
B4: RIM1_C2B (residues 1166–1334) (domain or fragment)
chain: GPAQLVGRQTLATPAMGDIQIGMEDKKGQLEVEVIRARSLTQKPGSKSTPAPYVKVYLLENGACIAKKKTRIARKTLDPLYQQSLVFDESPQGKVLQVIVWGDYGRMDHKCFMGVAQILLEELDLSSMVIGWYKLFPPSSLVDPTLAPLTRRASQSSLESSSGPPCIRS

Legend:
Experiment in all cases: ITC
RIM1_C2B L1245Q = molecular target: T1, RIM1_C2B L1245Q (Rattus norvegicus)
T1 chain: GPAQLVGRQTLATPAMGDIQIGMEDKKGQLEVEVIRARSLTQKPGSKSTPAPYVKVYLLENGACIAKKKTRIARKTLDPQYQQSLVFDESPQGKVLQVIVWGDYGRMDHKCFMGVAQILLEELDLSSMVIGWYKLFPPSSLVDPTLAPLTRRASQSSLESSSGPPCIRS

RIM1_C2B R1236E = molecular target: T2, RIM1_C2B R1236E (Rattus norvegicus)
T2 chain: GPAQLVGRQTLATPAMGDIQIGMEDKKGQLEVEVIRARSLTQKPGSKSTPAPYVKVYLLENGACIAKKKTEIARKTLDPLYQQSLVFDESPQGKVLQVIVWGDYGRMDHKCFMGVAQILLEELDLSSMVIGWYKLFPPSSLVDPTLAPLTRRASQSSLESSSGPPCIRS

[1] = molecular target: B4
RIM1_C2B K1240E = molecular target: T3, RIM1_C2B K1240E (Rattus norvegicus)
T3 chain: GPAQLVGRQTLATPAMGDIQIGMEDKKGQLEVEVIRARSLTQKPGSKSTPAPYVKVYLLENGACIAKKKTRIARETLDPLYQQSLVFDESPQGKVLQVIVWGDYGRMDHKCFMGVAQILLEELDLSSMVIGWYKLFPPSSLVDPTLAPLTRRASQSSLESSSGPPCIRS

liprin-α2_CC2N A350S = molecular target: T4, liprin-α2_CC2N A350S (human, UniProt O75334 300-404, A350S)
T4 sequence: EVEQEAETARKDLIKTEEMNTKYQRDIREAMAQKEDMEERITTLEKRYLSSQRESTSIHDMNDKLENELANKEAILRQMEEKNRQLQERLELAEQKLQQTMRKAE

liprin-α2_CC2N E380R = molecular target: T5, liprin-α2_CC2N E380R (human, UniProt O75334 300-404, E380R)
T5 sequence: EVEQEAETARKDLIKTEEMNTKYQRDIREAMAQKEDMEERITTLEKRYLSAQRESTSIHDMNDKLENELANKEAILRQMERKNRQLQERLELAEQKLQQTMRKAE

[2] = molecular target: B1
[3] = molecular target: T6, liprin-α2_CC2 (residues 259–542) (human, UniProt O75334 259-542)
T6 chain: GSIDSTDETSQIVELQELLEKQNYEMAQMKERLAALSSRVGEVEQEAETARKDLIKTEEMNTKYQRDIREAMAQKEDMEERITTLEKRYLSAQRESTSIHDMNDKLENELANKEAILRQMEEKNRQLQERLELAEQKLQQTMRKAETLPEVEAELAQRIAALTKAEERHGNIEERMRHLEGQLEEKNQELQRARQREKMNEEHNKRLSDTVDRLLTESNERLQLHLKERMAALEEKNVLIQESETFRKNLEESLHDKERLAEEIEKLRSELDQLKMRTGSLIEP

Binder: B1
Kd (RIM1_C2B L1245Q): > 100 µM
Kd (RIM1_C2B R1236E): 27 µM
Kd [1]: 4 µM
Kd (RIM1_C2B K1240E): 25 µM

Kd [1]: 23 µM
B2: liprin-α2_CC2N E379R (protein)
chain: EVEQEAETARKDLIKTEEMNTKYQRDIREAMAQKEDMEERITTLEKRYLSAQRESTSIHDMNDKLENELANKEAILRQMREKNRQLQERLELAEQKLQQTMRKAE

Kd [1]: 24 µM
B3: liprin-α2_CC2N R383A (protein)
chain: EVEQEAETARKDLIKTEEMNTKYQRDIREAMAQKEDMEERITTLEKRYLSAQRESTSIHDMNDKLENELANKEAILRQMEEKNAQLQERLELAEQKLQQTMRKAE

Binder: B4
Kd (liprin-α2_CC2N A350S): 5.7 µM
Kd (liprin-α2_CC2N E380R): 8.2 µM
Kd [2]: 4 µM
Kd [3]: 5 µM
